Test results published in the supplement of paper PMC10567573.

B1: CLCN6 (parent)
chain: FQSISLRKIQFNFPYFRSDRDKRD
B2: VTI1B (parent)
chain: ANETLAEMEEELRYAPLSFRNPMM

Variants of: B1
Assay: protein stability index of a GFP-peptide fusion (GPS, HEK-293T) (PSI 1-6); higher = more stable
Settings: c terminus: a fixed tail appended
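Also: lentivirally expressed fusions sorted by FACS into six bins by GFP to DsRed ratio, PSI derived from sequencing read proportions per bin multiplied by bin number.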

Row | Variant | protein stability index
1 | K22S | 2.72
2 | K22P | 1.66
3 | K22Q | 1.68
4 | K22A | 1.29
5 | K22H | 1.34
6 | K22L | 1.71
7 | K22R | 1.35
8 | K22I | 1.81
9 | K22T | 2.17
10 | K22Y | 2.27
11 | K22W | 2.09
12 | K22C | 3.83
13 | K22D | 1.92
14 | K22M | 1.82
15 | R17P | 2.28
16 | R17I | 1.56
17 | R17N | 2.21
18 | R17T | 1.71
19 | R17D | 3.03
20 | R17F | 1.52
21 | R17S | 1.5
22 | R17K | 1.76
23 | R17M | 1.93
24 | R17G | 1.71
25 | R17Y | 1.22

Row | Variant | protein stability index
26 | R17V | 2.15
27 | R17H | 2.35
28 | R17Q | 2.02
29 | R17C | 1.11
30 | R17E | 2.26
31 | F1D | 3.34
32 | F1N | 3.76
33 | F1T | 2.77
34 | F1I | 2.16
35 | F1R | 2.07
36 | F1H | 2.83
37 | F1Q | 3.52
38 | F1S | 3.4
39 | F1A | 2.6
40 | F1E | 4
41 | F1P | 2.29
42 | F1K | 3.31
43 | F1C | 2.4
44 | F1G | 2.16
45 | D19K | 1.46
46 | D19S | 1.33
47 | D19I | 2
48 | D19F | 1.68
49 | D19P | 2.16
50 | D19Q | 1.85

Row | Variant | protein stability index
51 | D19L | 1.47
52 | D19A | 1.67
53 | D19T | 2.21
54 | D19M | 2.01
55 | D19R | 1.9
56 | R7A | 2.38
57 | R7V | 2.97
58 | R7K | 1.59
59 | R7L | 1.37
60 | R7N | 1.97
61 | R7C | 1.81
62 | R7W | 1.77
63 | R7P | 3.68
64 | R7Q | 1.62
65 | R7T | 1.78
66 | R7M | 1.21
67 | R7S | 2.4
68 | R7H | 2.02
69 | R7I | 1.77
70 | R7E | 2.56
71 | Y15C | 2.21
72 | Y15K | 2
73 | Y15G | 2.68
74 | Y15M | 1.53
75 | Y15D | 2.31

Row | Variant | protein stability index
76 | Y15E | 2.7
77 | Y15Q | 2.56
78 | Y15V | 2.22
79 | Y15P | 2.41
80 | Y15S | 2.58
81 | Y15T | 2.75
82 | Y15I | 2.15
83 | Y15A | 3.09
84 | Y15F | 1.48
85 | Y15H | 2.78
86 | Y15W | 1.44
87 | Y15N | 2.78
88 | R20W | 3.61
89 | R20S | 2.2
90 | R20H | 1.72
91 | R20V | 1.73
92 | R20C | 1.23
93 | R20E | 2.73
94 | R20L | 1.22
95 | R20N | 1.72
96 | R20T | 1.25
97 | R20K | 1.43
98 | R20P | 1.45
99 | R20A | 2.17
100 | R20M | 1.72

Row | Variant | protein stability index
101 | R20Q | 3.07
102 | Q10L | 1.67
103 | Q10Y | 1
104 | Q10N | 1.95
105 | Q10P | 1.74
106 | Q10A | 1.56
107 | Q10H | 1.51
108 | Q10D | 2.04
109 | Q10S | 1.98
110 | Q10C | 2.6
111 | Q10K | 1.67
112 | Q10F | 1.52
113 | Q10V | 2.31
114 | Q10I | 2.33
115 | Q2I | 1.06
116 | Q2Y | 1.33
117 | Q2R | 1.91
118 | Q2F | 1.53
119 | Q2S | 1.96
120 | Q2D | 2.46
121 | Q2E | 2.69
122 | Q2V | 5.36
123 | Q2K | 2.5
124 | Q2T | 2.73
125 | Q2N | 1.62

Row | Variant | protein stability index
126 | Q2G | 1.54
127 | Q2L | 2.31
128 | Q2C | 1.9
129 | Q2A | 2.17
130 | S3N | 1.82
131 | S3R | 1.38
132 | S3F | 2.58
133 | S3W | 2.4
134 | S3D | 2.19
135 | S3L | 1.08
136 | S3A | 1.4
137 | S3I | 1.74
138 | S3T | 1.79
139 | S3G | 1.89
140 | S3Q | 1.66
141 | S3P | 2.29
142 | S3E | 2.73
143 | S3H | 1.46
144 | N12I | 2.06
145 | N12M | 1.54
146 | N12T | 2.37
147 | N12A | 1.09
148 | N12D | 1.53
149 | N12R | 2.59
150 | N12K | 2.04

Row | Variant | protein stability index
151 | N12V | 1.9
152 | N12E | 1.5
153 | N12S | 1.65
154 | I9R | 2.02
155 | I9D | 1.72
156 | I9H | 1.83
157 | I9T | 2.78
158 | I9L | 1.62
159 | I9Q | 2.81
160 | I9E | 1.98
161 | I9N | 1.47
162 | I9P | 1.65
163 | I9S | 2
164 | I9C | 1.98
165 | I9G | 1.44
166 | I9W | 1.78
167 | S5R | 1.77
168 | S5M | 1.46
169 | S5K | 1.7
170 | S5D | 1.96
171 | S5P | 1.82
172 | S5T | 1.42
173 | S5H | 1.74
174 | S5N | 1.82
175 | S5Q | 1.66

Row | Variant | protein stability index
176 | S5G | 1.02
177 | S5Y | 1.98
178 | S5A | 1.82
179 | S5F | 2.62
180 | S5E | 2.21
181 | S5I | 1.4
182 | F16E | 2.22
183 | F16T | 1.9
184 | F16N | 2.68
185 | F16W | 2.08
186 | F16S | 1.83
187 | F16H | 2.3
188 | F16D | 2.74
189 | F16P | 1.47
190 | F16A | 1.68
191 | F16C | 1.52
192 | F16I | 2.18
193 | F16Q | 2.39
194 | F16L | 1.44
195 | S18Y | 2.35
196 | S18V | 1.25
197 | S18H | 1.93
198 | S18D | 1.71
199 | S18T | 2.31
200 | S18N | 2.62

Row | Variant | protein stability index
201 | S18A | 1.99
202 | S18M | 1.38
203 | S18P | 1.6
204 | S18R | 2.16
205 | S18Q | 1.52
206 | K8Q | 2.12
207 | K8T | 1.44
208 | K8H | 2.92
209 | K8M | 2.08
210 | K8P | 2.92
211 | K8I | 2.78
212 | K8C | 1.75
213 | K8W | 2.43
214 | K8S | 1.31
215 | K8N | 2.18
216 | K8R | 1.74
217 | K8E | 2.63
218 | K8Y | 2.09
219 | K8L | 2.64
220 | F11Q | 1.25
221 | F11M | 1.65
222 | F11L | 2.54
223 | F11K | 2.79
224 | F11G | 1.41
225 | F11S | 1.56

Row | Variant | protein stability index
226 | F11P | 1.28
227 | F11R | 1.51
228 | F11E | 2.02
229 | F11C | 1.96
230 | F11H | 1.74
231 | F11Y | 1.61
232 | L6T | 2.59
233 | L6H | 2.03
234 | L6A | 2.68
235 | L6C | 1.53
236 | L6E | 2.08
237 | L6P | 2.78
238 | L6S | 1.66
239 | L6N | 1.68
240 | L6Q | 2.13
241 | R23H | 1.99
242 | R23G | 2.85
243 | R23C | 1.67
244 | R23D | 1.72
245 | R23E | 1.86
246 | R23A | 1.73
247 | R23F | 2.01
248 | F13P | 1.75
249 | F13C | 2.2
250 | F13V | 1.43

Row | Variant | protein stability index
251 | F13K | 1.8
252 | F13Q | 2.28
253 | F13Y | 2.49
254 | F13M | 2.29
255 | F13D | 1.98
256 | F13I | 1.35
257 | F13S | 1.59
258 | F13A | 1.84
259 | F13E | 3.21
260 | I4M | 3
261 | I4D | 2.05
262 | I4A | 2.71
263 | I4P | 2.19
264 | I4G | 2.02
265 | I4T | 2.21
266 | I4L | 2.44
267 | I4N | 1.98
268 | I4Y | 1.42
269 | I4Q | 1.9
270 | I4V | 1.98
271 | I4E | 1.91
272 | I4S | 1.74
273 | D21C | 2.4
274 | D21F | 3.21
275 | D21H | 2.02

Row | Variant | protein stability index
276 | D21R | 1.19
277 | D21M | 2.08
278 | D21S | 3.06
279 | D21V | 2.94
280 | D21P | 2.61
281 | D21G | 1.27
282 | D21Y | 1.22
283 | D21E | 1.1
284 | D21K | 1.31
285 | D21A | 3.22
286 | P14E | 1.99
287 | P14G | 1.69
288 | P14F | 1.69
289 | P14L | 1.24
290 | P14C | 1.82
291 | P14N | 1.81
292 | P14H | 1.67
293 | P14Q | 2.5
294 | P14I | 1.43

Variants of: B2
Assay: as above
Settings: c terminus: a fixed tail appended

Row | Variant | protein stability index
295 | M23A | 2.71
296 | M23H | 3.24
297 | M23N | 3.67
298 | M23S | 3.62
299 | M23V | 1.83
300 | M23T | 3.35
301 | M23W | 2.13
302 | M23K | 3.07
303 | M23I | 2.04
304 | M23L | 3.56
305 | M23R | 2.19
306 | M23G | 3.46
307 | M23Q | 2.89
308 | M23E | 2.79
309 | M23D | 4.13
310 | M23C | 3.62
311 | M23F | 2.62
312 | M23Y | 2.79
313 | P22T | 3.22
314 | P22Y | 3.38

Row | Variant | protein stability index
315 | P22W | 3.03
316 | P22V | 2.81
317 | M24A | 3.78
318 | M24H | 3.26
319 | M24T | 3.97
320 | M24F | 2.83
321 | M24K | 3.91
322 | M24W | 3.97
323 | M24N | 3.2
324 | M24P | 4.98
325 | M24C | 2.37
326 | M24L | 2.26
327 | M24Q | 2.46
328 | M24G | 3.72
329 | M24S | 4.41
330 | M24D | 3.92
331 | M24V | 3.04
332 | M24R | 3.21
333 | M24E | 4.67
334 | M24Y | 3.46
